What was measured:
[1] = target: TOM1 in the prey vector pVP16 (UniProt O60784); assay: mammalian two-hybrid assay; conditions: n = 3; parent: est. 100; read off a plot
[2] = target: Dab2 in the prey vector pVP16 (UniProt P98082); assay: mammalian two-hybrid assay; conditions: n = 5; parent: est. 100; read off a plot
[3] = target: F-actin (cellular actin filaments of RPE cells), P60709; assay: cell fractionation into supernatant and F-actin-enriched pellet, quantitative immunoblotting; conditions: chain shown with the change, n = 3, parent: est. 1.3, read off a plot

Row | Molecule | percent of parent (% wildtype control) [1] | percent of parent (% wildtype control) [2] | other: pellet:supernatant (P:S) ratio [3]
1 | Myosin VI globular tail (amino acids 1036–1294), wild type, in the bait vector pM E1254A | 87 | 88 | –
2 | GFP-tagged full-length myosin VI-NI, wild type, Q9UM54-1 I1252A (protein) MEDGKPVWAPHPTDGFQMGNIVDIGPDSLTIEPLNQKGKTFLALINQVFPAEEDSKKDVEDNCSLMYLNEATLLHNIKVRYSKDRIYTYVANILIAVNPYFDIPKIYSSEAIKSYQGKSLGTRPPHVFAIADKAFRDMKVLKMSQSIIVSGESGAGKTENTKFVLRYLTESYGTGQDIDDRIVEANPLLEAFGNAKTVRNNNSSRFGKFVEIHFNEKSSVVGGFVSHYLLEKSRICVQGKEERNYHIFYRLCAGASEDIREKLHLSSPDNFRYLNRGCTRYFANKETDKQILQNRKSPEYLKAGSMKDPLLDDHGDFIRMCTAMKKIGLDDEEKLDLFRVVAGVLHLGNIDFEEAGSTSGGCNLKNKSAQSLEYCAELLGLDQDDLRVSLTTRVMLTTAGGTKGTVIKVPLKVEQANNARDALAKTVYSHLFDHVVNRVNQCFPFETSSYFIGVLDIAGFEYFEHNSFEQFCINYCNEKLQQFFNERILKEEQELYQKEGLGVNEVHYVDNQDCIDLIEAKLVGILDILDEENRLPQPSDQHFTSAVHQKHKDHFRLTIPRKSKLAVHRNIRDDEGFIIRHFAGAVCYETTQFVEKNNDALHMSLESLICESRDKFIRELFESSTNNNKDTKQKAGKLSFISVGNKFKTQLNLLLDKLRSTGASFIRCIKPNLKMTSHHFEGAQILSQLQCSGMVSVLDLMQGGYPSRASFHELYNMYKKYMPDKLARLDPRLFCKALFKALGLNENDYKFGLTKVFFRPGKFAEFDQIMKSDPDHLAELVKRVNHWLTCSRWKKVQWCSLSVIKLKNKIKYRAEACIKMQKTIRMWLCKRRHKPRIDGLVKVGTLKKRLDKFNEVVSVLKDGKPEMNKQIKNLEISIDTLMAKIKSTMMTQEQIQKEYDALVKSSEELLSALQKKKQQEEEAERLRRIQEEMEKERKRREEDEKRRRKEEEERRMKLEMEAKRKQEEEERKKREDDEKRIQAEVEAQLARQKEEESQQQAVLEQERRDRELALRIAQSEAELISDEAQADLALRRNDGTRPKMTPEQMAKEMSEFLSRGPAVLATKAAAGTKKYDLSKWKYAELRDTINTSCDIELLAACREEFHRRLKVYHAWKSKNKKRNTETEQRAPKSVTDYDFAPFLNNSPQQNPAAQIPARQREIEMNRQQRFFRIPFIRPADQYKDPQSKKKGWWYAHFDGPWIARQMELHPDKPPILLVAGKDDMEMCELNLEETGLTRKRGAEILPRQFEEAWERCGGIQYLQNAIESRQARPTYATAMLQSLLK | – | – | 1
3 | GFP-tagged full-length myosin VI-NI, wild type, Q9UM54-1 E1254A (protein) MEDGKPVWAPHPTDGFQMGNIVDIGPDSLTIEPLNQKGKTFLALINQVFPAEEDSKKDVEDNCSLMYLNEATLLHNIKVRYSKDRIYTYVANILIAVNPYFDIPKIYSSEAIKSYQGKSLGTRPPHVFAIADKAFRDMKVLKMSQSIIVSGESGAGKTENTKFVLRYLTESYGTGQDIDDRIVEANPLLEAFGNAKTVRNNNSSRFGKFVEIHFNEKSSVVGGFVSHYLLEKSRICVQGKEERNYHIFYRLCAGASEDIREKLHLSSPDNFRYLNRGCTRYFANKETDKQILQNRKSPEYLKAGSMKDPLLDDHGDFIRMCTAMKKIGLDDEEKLDLFRVVAGVLHLGNIDFEEAGSTSGGCNLKNKSAQSLEYCAELLGLDQDDLRVSLTTRVMLTTAGGTKGTVIKVPLKVEQANNARDALAKTVYSHLFDHVVNRVNQCFPFETSSYFIGVLDIAGFEYFEHNSFEQFCINYCNEKLQQFFNERILKEEQELYQKEGLGVNEVHYVDNQDCIDLIEAKLVGILDILDEENRLPQPSDQHFTSAVHQKHKDHFRLTIPRKSKLAVHRNIRDDEGFIIRHFAGAVCYETTQFVEKNNDALHMSLESLICESRDKFIRELFESSTNNNKDTKQKAGKLSFISVGNKFKTQLNLLLDKLRSTGASFIRCIKPNLKMTSHHFEGAQILSQLQCSGMVSVLDLMQGGYPSRASFHELYNMYKKYMPDKLARLDPRLFCKALFKALGLNENDYKFGLTKVFFRPGKFAEFDQIMKSDPDHLAELVKRVNHWLTCSRWKKVQWCSLSVIKLKNKIKYRAEACIKMQKTIRMWLCKRRHKPRIDGLVKVGTLKKRLDKFNEVVSVLKDGKPEMNKQIKNLEISIDTLMAKIKSTMMTQEQIQKEYDALVKSSEELLSALQKKKQQEEEAERLRRIQEEMEKERKRREEDEKRRRKEEEERRMKLEMEAKRKQEEEERKKREDDEKRIQAEVEAQLARQKEEESQQQAVLEQERRDRELALRIAQSEAELISDEAQADLALRRNDGTRPKMTPEQMAKEMSEFLSRGPAVLATKAAAGTKKYDLSKWKYAELRDTINTSCDIELLAACREEFHRRLKVYHAWKSKNKKRNTETEQRAPKSVTDYDFAPFLNNSPQQNPAAQIPARQREIEMNRQQRFFRIPFIRPADQYKDPQSKKKGWWYAHFDGPWIARQMELHPDKPPILLVAGKDDMEMCELNLEETGLTRKRGAEILPRQFEEIWARCGGIQYLQNAIESRQARPTYATAMLQSLLK | – | – | 0.97
4 | GFP-tagged full-length myosin VI-NI, wild type, Q9UM54-1 R1255A (protein) MEDGKPVWAPHPTDGFQMGNIVDIGPDSLTIEPLNQKGKTFLALINQVFPAEEDSKKDVEDNCSLMYLNEATLLHNIKVRYSKDRIYTYVANILIAVNPYFDIPKIYSSEAIKSYQGKSLGTRPPHVFAIADKAFRDMKVLKMSQSIIVSGESGAGKTENTKFVLRYLTESYGTGQDIDDRIVEANPLLEAFGNAKTVRNNNSSRFGKFVEIHFNEKSSVVGGFVSHYLLEKSRICVQGKEERNYHIFYRLCAGASEDIREKLHLSSPDNFRYLNRGCTRYFANKETDKQILQNRKSPEYLKAGSMKDPLLDDHGDFIRMCTAMKKIGLDDEEKLDLFRVVAGVLHLGNIDFEEAGSTSGGCNLKNKSAQSLEYCAELLGLDQDDLRVSLTTRVMLTTAGGTKGTVIKVPLKVEQANNARDALAKTVYSHLFDHVVNRVNQCFPFETSSYFIGVLDIAGFEYFEHNSFEQFCINYCNEKLQQFFNERILKEEQELYQKEGLGVNEVHYVDNQDCIDLIEAKLVGILDILDEENRLPQPSDQHFTSAVHQKHKDHFRLTIPRKSKLAVHRNIRDDEGFIIRHFAGAVCYETTQFVEKNNDALHMSLESLICESRDKFIRELFESSTNNNKDTKQKAGKLSFISVGNKFKTQLNLLLDKLRSTGASFIRCIKPNLKMTSHHFEGAQILSQLQCSGMVSVLDLMQGGYPSRASFHELYNMYKKYMPDKLARLDPRLFCKALFKALGLNENDYKFGLTKVFFRPGKFAEFDQIMKSDPDHLAELVKRVNHWLTCSRWKKVQWCSLSVIKLKNKIKYRAEACIKMQKTIRMWLCKRRHKPRIDGLVKVGTLKKRLDKFNEVVSVLKDGKPEMNKQIKNLEISIDTLMAKIKSTMMTQEQIQKEYDALVKSSEELLSALQKKKQQEEEAERLRRIQEEMEKERKRREEDEKRRRKEEEERRMKLEMEAKRKQEEEERKKREDDEKRIQAEVEAQLARQKEEESQQQAVLEQERRDRELALRIAQSEAELISDEAQADLALRRNDGTRPKMTPEQMAKEMSEFLSRGPAVLATKAAAGTKKYDLSKWKYAELRDTINTSCDIELLAACREEFHRRLKVYHAWKSKNKKRNTETEQRAPKSVTDYDFAPFLNNSPQQNPAAQIPARQREIEMNRQQRFFRIPFIRPADQYKDPQSKKKGWWYAHFDGPWIARQMELHPDKPPILLVAGKDDMEMCELNLEETGLTRKRGAEILPRQFEEIWEACGGIQYLQNAIESRQARPTYATAMLQSLLK | – | – | 1.2

Results, then the molecule that gave them:

Row | percent of parent (% wildtype control) [1] | percent of parent (% wildtype control) [2] | other: pellet:supernatant (P:S) ratio [3] | Molecule
5 | 99 | 60 | – | Myosin VI globular tail (amino acids 1036–1294), wild type, in the bait vector pM R1255A
6 | 110 | 260 | – | Myosin VI globular tail (amino acids 1036–1294), wild type, in the bait vector pM I1252A
7 | 73 | 66 | – | Myosin VI globular tail (amino acids 1036–1294), wild type, in the bait vector pM E1251A
8 | – | – | 2.2 | GFP-tagged full-length myosin VI-NI, wild type, Q9UM54-1 W1253A (protein) MEDGKPVWAPHPTDGFQMGNIVDIGPDSLTIEPLNQKGKTFLALINQVFPAEEDSKKDVEDNCSLMYLNEATLLHNIKVRYSKDRIYTYVANILIAVNPYFDIPKIYSSEAIKSYQGKSLGTRPPHVFAIADKAFRDMKVLKMSQSIIVSGESGAGKTENTKFVLRYLTESYGTGQDIDDRIVEANPLLEAFGNAKTVRNNNSSRFGKFVEIHFNEKSSVVGGFVSHYLLEKSRICVQGKEERNYHIFYRLCAGASEDIREKLHLSSPDNFRYLNRGCTRYFANKETDKQILQNRKSPEYLKAGSMKDPLLDDHGDFIRMCTAMKKIGLDDEEKLDLFRVVAGVLHLGNIDFEEAGSTSGGCNLKNKSAQSLEYCAELLGLDQDDLRVSLTTRVMLTTAGGTKGTVIKVPLKVEQANNARDALAKTVYSHLFDHVVNRVNQCFPFETSSYFIGVLDIAGFEYFEHNSFEQFCINYCNEKLQQFFNERILKEEQELYQKEGLGVNEVHYVDNQDCIDLIEAKLVGILDILDEENRLPQPSDQHFTSAVHQKHKDHFRLTIPRKSKLAVHRNIRDDEGFIIRHFAGAVCYETTQFVEKNNDALHMSLESLICESRDKFIRELFESSTNNNKDTKQKAGKLSFISVGNKFKTQLNLLLDKLRSTGASFIRCIKPNLKMTSHHFEGAQILSQLQCSGMVSVLDLMQGGYPSRASFHELYNMYKKYMPDKLARLDPRLFCKALFKALGLNENDYKFGLTKVFFRPGKFAEFDQIMKSDPDHLAELVKRVNHWLTCSRWKKVQWCSLSVIKLKNKIKYRAEACIKMQKTIRMWLCKRRHKPRIDGLVKVGTLKKRLDKFNEVVSVLKDGKPEMNKQIKNLEISIDTLMAKIKSTMMTQEQIQKEYDALVKSSEELLSALQKKKQQEEEAERLRRIQEEMEKERKRREEDEKRRRKEEEERRMKLEMEAKRKQEEEERKKREDDEKRIQAEVEAQLARQKEEESQQQAVLEQERRDRELALRIAQSEAELISDEAQADLALRRNDGTRPKMTPEQMAKEMSEFLSRGPAVLATKAAAGTKKYDLSKWKYAELRDTINTSCDIELLAACREEFHRRLKVYHAWKSKNKKRNTETEQRAPKSVTDYDFAPFLNNSPQQNPAAQIPARQREIEMNRQQRFFRIPFIRPADQYKDPQSKKKGWWYAHFDGPWIARQMELHPDKPPILLVAGKDDMEMCELNLEETGLTRKRGAEILPRQFEEIAERCGGIQYLQNAIESRQARPTYATAMLQSLLK

Source: paper PMC5074368
